Laboratory results as given in article PMC6630058 (Biotechnology Reports, 2019).

Target: Toxoplasma gondii major surface antigen 1 (SAG1) (Toxoplasma gondii, RH strain, UniProt P13664)
Experiment: far-Western, overlay or dot blot

Sequence of Toxoplasma gondii major surface antigen 1 (SAG1) (P13664 48-336): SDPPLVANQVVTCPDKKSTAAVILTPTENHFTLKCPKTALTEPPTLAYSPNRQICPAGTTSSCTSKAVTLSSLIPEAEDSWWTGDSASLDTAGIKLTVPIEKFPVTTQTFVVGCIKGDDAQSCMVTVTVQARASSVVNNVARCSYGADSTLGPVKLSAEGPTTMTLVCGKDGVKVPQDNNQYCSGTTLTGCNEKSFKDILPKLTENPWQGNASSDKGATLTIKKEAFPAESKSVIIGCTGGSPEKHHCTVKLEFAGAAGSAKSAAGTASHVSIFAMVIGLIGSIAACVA

B1: scFvSG15(VLT8P)-AP conjugate (scFvSG15-AP with T8P in FR-1 of the kappa VL) (scFv, V domains shown)
VH: QVQLQQSGAELVRPGVSVKISCKGSGYTFTDYGMHWVKQSHAKSLEWIGIISTYSGDASYNQKFKGKATMTVDKSSSTAYMELARLTSEDSAIYYCARSSTWYYFDYWGQGTTLTVSS
VL: DIQVTQTPSSLSASLGDRVTISCRASQDISNYLNWYQQKPDGTVKLLIYYTSRLHSGVPSRFSGSGSGTDYSLTISNLEQEDIATYFCQQGNTLPYTFGGGTKLEIK
Q: Does B1 bind?
A: binds
